Like-named read-outs stand apart in the source and are kept apart here.
Assays:
[1] = biological target: T1, biotinylated Aβ1-40 peptide (biotinylated (N-biotinylated in Example 7)); test: SPR, Fab over Aβ1-40 on SA chip
T1 construct: captured on streptavidin (SA) chip; also called Biotinylated Aβ peptide 1-40; Aβ1-40 on SA chip
Protocol: (§1) Affinities of 9TL Fab fragment and its variants Fab fragments were determined by Surface Plasmon Resonance (SPR) system (BIAcore 3000™, BIAcore, Inc., Piscaway, N.J.). SA chips (streptavidin) were used according to the supplier's instructions. Biotinylated Aβ peptide 1-40 was diluted into HBS-EP (10 mM HEPES pH 7.4, 150 mM NaCl, 3 mM EDTA, 0.005% P20) and injected over the chip at a concentration of 0.005 mg/mL. Using variable flow time across the individual chip channels, two ranges of antigen density were achieved: 10-200 response units (RU) for detailed kinetic studies and 500-600 RU for concentration studies and screening. […] HBS-EP buffer was used as running buffer for all the BIAcore assays. […] The concentrations of the Fab proteins were determined by ELISA and/or SDS-PAGE electrophoresis using a standard Fab of known concentration (determined by amino acid analysis). Kinetic association rates (kₒₙ) and dissociation rates (koff) were obtained simultaneously by fitting the data to a 1:1 Langmuir binding model (Karlsson, R. Roos, H. Fagerstam, L. Petersson, B. (1994). Methods Enzymology 6. 99-110) using the BIAevaluation program. Equilibrium dissociation constant (KD) values were calculated as koff/kₒₙ.

[2] = biological target: T1, biotinylated Aβ1-40 peptide; test: SPR, Fab over Aβ1-40 on SA chip; Fab fragment; Aβ1-40 immobilized on SA chip
Protocol: as §1, with “Kinetic association rates (kₒₙ) and dissociation rates (koff) were obtained simultaneously by fitting the data to a 1:1 Langmuir binding model (Karlsson, R. Roos, H. Fagerstam, L. Petersson, B. (1994). Methods Enzymology 6. 99-110) using the BIAevaluation program.” left out
(§2) All amino acid substitutions of the variants shown in Table 3 are described relative to the sequence of 9TL. KD and other kinetic parameters were determined by BIAcore analysis described above with Aβ₁₋₄₀ immobilized on SA chip.

[3] = biological target: T1, biotinylated Aβ1-40 peptide; test: SPR, Fab over Aβ1-40 on SA chip; remark: listed apart in the source
Protocol: as §1, §2
Target sequence in this assay (peptide, as listed by the source): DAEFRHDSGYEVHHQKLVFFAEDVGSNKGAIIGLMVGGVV

[4] = biological target: T2, Aβ1-43 peptide; test: SPR peptide competition, Aβ1-40 on SA chip
T2 construct: also called 1-43 (WT)
Protocol: (§3) To determine the epitope on Aβ polypeptide that is recognized by antibody 9TL, Surface Plasmon Resonance (SPR, Biacore 3000) binding analysis was used. Aβ₁₋₄₀ polypeptide coupled to biotin (Global Peptide Services, CO) was immobilized on a streptavidin-coated chip (SA chip). The binding of Aβ antibodies Fab fragments (at 50 nM) to the immobilized Aβ₁₋₄₀ in the absence or presence of different soluble fragments of the Aβ peptide (at […], from American Peptide Company Inc., CA). Amino acid sequences of Aβ₁₋₄₀, Aβ₁₋₄₂, and Aβ₁₋₄₃ are shown in below in Table 4. The Aβ peptides which displaced binding of antibody 9TL Fab fragment to Aβ₁₋₄₀ were Aβ₂₈₄₀, Aβ₁₋₄₀, Aβ₃₃₋₄₀, and Aβ₁₇₋₄₀, respectively (FIG. 2). Thus, antibody 9TL binds to a C-terminal peptide (33-40) of Aβ₁₋₄₀.

[5] = biological target: T3, Aβ28-42 peptide; test: SPR peptide competition, Aβ1-40 on SA chip
T3 peptide: KGAIIGLMVGGVVIA
Protocol: as §3

[6] = biological target: T4, Aβ33-40 peptide; test: SPR peptide competition, Aβ1-40 on SA chip
T4 construct: also called C-terminal peptide (33-40) of Aβ1-40
T4 peptide: GLMVGGVV
Protocol: as §3

[7] = biological target: T5, Aβ28-40 peptide; test: SPR peptide competition, Aβ1-40 on SA chip
T5 peptide: KGAIIGLMVGGVV
Protocol: as §3

[8] = biological target: T6, Aβ17-40 peptide; test: SPR peptide competition, Aβ1-40 on SA chip
T6 peptide: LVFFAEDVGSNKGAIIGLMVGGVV
Protocol: as §3

[9] = biological target: T1, biotinylated Aβ1-40 peptide; test: SPR, Fab over Aβ1-40 on SA chip; KD=koff/kon
Protocol: as §1, §2

T2 sequence (peptide, as listed by the source): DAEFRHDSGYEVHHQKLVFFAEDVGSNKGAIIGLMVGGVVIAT

Kd [1]: 1.13 nM | koff [1]: 0.000359 s⁻¹ | kon [1]: 318000 M⁻¹ s⁻¹ | kon [2]: 318000 M⁻¹ s⁻¹ | koff [3]: 0.000359 s⁻¹ | binding result [6]: binds | binding result [7]: binds | binding result [8]: binds | Kd [9]: 1.13 nM
B1: 9TL Fab fragment (Fab, V domains shown)
VH: QVQLVQSGAEVKKPGASVKVSCKASGYYTEAYYIHWVRQAPGQGLEWMGRIDPATGNTKYAPRLQDRVTMTRDTSTSTVYMELSSLRSEDTAVYYCASLYSLPVYWGQGTTVTVSS
VL: DVVMTQSPLSLPVTLGQPASISCKSSQSLLYSDAKTYLNWFQQRPGQSPRRLIYQISRLDPGVPDRFSGSGSGTDFTLKISRVEAEDVGVYYCLQGTHYPVLFGQGTRLEIKR
notes: Fab from E. coli with human IgG2 CH1 (P01859) and human kappa constant domain (CAA09181)
binding result [4]: no binding (tested: 10 µM (FIG. 2 legend; text prints 10 pM)) | binding result [5]: no binding (tested: 10 µM (FIG. 2 legend; text prints 10 pM))

From patent US20090022728A1 (RINAT NEUROSCIENCE, published 2009)
